Measurements as given in paper PMC4262410, “Identification of Dipeptidyl-Peptidase (DPP)5 and DPP7 in Porphyromonas endodontalis, Distinct from Those in Porphyromonas gingivalis” (PLoS ONE, 2014).
Residues, ends and D or L forms follow the SMILES beside them. *: point of attachment. AMC = Cc1cc(=O)oc2cc(N*)ccc12

What was measured:
[1] = system: Cc1cc(=O)oc2cc(NC(=O)[C@H](C)NC(=O)[C@@H](N)CCCCN)ccc12; assay: purified protein; conditions: 50 mM sodium phosphate pH 7.0, 5 mM EDTA, 0.1 M NaCl, 37°C
Excerpt: (§2) fluorescence of released aminomethylcoumarin, Michaelis-Menten fit on PeDPP5 (MER236725)

[2] = system: Cc1cc(=O)oc2cc(NC(=O)[C@H](Cc3ccc(O)cc3)NC(=O)[C@@H](N)CO)ccc12; assay: purified protein; conditions: 50 mM sodium phosphate pH 7.0, 5 mM EDTA, 0.1 M NaCl, 37°C
Excerpt: as §2

[3] = system: Cc1cc(=O)oc2cc(NC(=O)[C@H](Cc3ccccc3)NC(=O)CN)ccc12; assay: purified protein; conditions: 50 mM sodium phosphate pH 7.0, 5 mM EDTA, 0.1 M NaCl, 37°C
Excerpt: as §2

[4] = system: Cc1cc(=O)oc2cc(NC(=O)[C@H](C)NC(=O)[C@@H](N)CCCCN)ccc12; assay: fluorescence of released aminomethylcoumarin, Michaelis-Menten fit; type: biochemical, Porphyromonas gingivalis; conditions: 50 mM sodium phosphate pH 7.0, 5 mM EDTA, 0.1 M NaCl, 37°C
Excerpt: (§1) fluorescence of released aminomethylcoumarin, Michaelis-Menten fit on PgDPP5

[5] = system: Cc1cc(=O)oc2cc(NC(=O)[C@H](Cc3ccc(O)cc3)NC(=O)[C@@H](N)CO)ccc12; assay: as above; type: biochemical, Porphyromonas gingivalis; conditions: 50 mM sodium phosphate pH 7.0, 5 mM EDTA, 0.1 M NaCl, 37°C
Excerpt: as §1

[6] = system: Cc1cc(=O)oc2cc(NC(=O)[C@H](Cc3ccccc3)NC(=O)CN)ccc12; assay: as above; type: biochemical, Porphyromonas gingivalis; conditions: 50 mM sodium phosphate pH 7.0, 5 mM EDTA, 0.1 M NaCl, 37°C
Excerpt: as §1

PeDPP7 (MER278904) = target: T1, PeDPP7 (MER278904) (Porphyromonas endodontalis, UniProt C3JAQ3); assay: fluorescence of released aminomethylcoumarin, hydrolysis rate; type: biochemical; conditions: 20 µM substrate, 50 mM sodium phosphate pH 7.0, 5 mM EDTA, 37°C
T1 construct: gene dpp7; 70-kDa single band; S46 family
T1 sequence (C3JAQ3 3-710): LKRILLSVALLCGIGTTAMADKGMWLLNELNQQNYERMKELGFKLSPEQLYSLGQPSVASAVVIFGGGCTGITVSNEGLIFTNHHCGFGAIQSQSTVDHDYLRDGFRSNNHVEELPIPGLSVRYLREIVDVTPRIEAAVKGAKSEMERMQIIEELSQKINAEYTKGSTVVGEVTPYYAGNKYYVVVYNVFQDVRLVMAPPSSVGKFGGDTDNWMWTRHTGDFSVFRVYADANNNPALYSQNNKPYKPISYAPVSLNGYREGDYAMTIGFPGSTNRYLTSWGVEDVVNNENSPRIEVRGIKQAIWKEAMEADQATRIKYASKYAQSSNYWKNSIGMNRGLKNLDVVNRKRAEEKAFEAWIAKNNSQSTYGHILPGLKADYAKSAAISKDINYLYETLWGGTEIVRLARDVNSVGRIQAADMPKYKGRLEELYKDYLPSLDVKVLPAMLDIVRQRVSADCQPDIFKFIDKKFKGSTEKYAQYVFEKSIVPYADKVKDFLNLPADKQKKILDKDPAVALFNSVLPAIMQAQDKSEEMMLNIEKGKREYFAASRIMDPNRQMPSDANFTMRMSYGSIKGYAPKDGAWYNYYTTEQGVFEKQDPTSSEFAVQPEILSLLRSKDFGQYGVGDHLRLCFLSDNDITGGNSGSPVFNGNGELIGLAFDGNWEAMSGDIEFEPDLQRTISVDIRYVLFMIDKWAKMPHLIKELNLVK

Question: For “PeDPP5 (MER236725) (Porphyromonas endodontalis ATCC 35406)”, which Km [1] is on record?
Answer: 110 ± 7 µM

Question: What about the kcat [1] of the same molecule?
Answer: 21200 ± 932 s⁻¹

Question: And the kcat/Km [1]?
Answer: 1.94e+08 M⁻¹ s⁻¹

Question: What about the Km [2] of the same molecule?
Answer: 257 ± 9 µM

Question: And the kcat [2]?
Answer: 3470 ± 87 s⁻¹

Question: And the kcat/Km [2]?
Answer: 1.35e+07 M⁻¹ s⁻¹

Question: And the Km [3]?
Answer: 993 ± 176 µM

Question: And the kcat [3]?
Answer: 10400 ± 1640 s⁻¹

Question: And the kcat/Km [3]?
Answer: 1.05e+07 M⁻¹ s⁻¹

Question: “PgDPP5 (Porphyromonas gingivalis ATCC 33277)” was tested. Which Km [4] did it give?
Answer: 185 ± 21 µM

Question: And the kcat [4]?
Answer: 1950 ± 165 s⁻¹

Question: And the kcat/Km [4]?
Answer: 1.05e+07 M⁻¹ s⁻¹

Question: What about the Km [5] of the same molecule?
Answer: 296 ± 31 µM

Question: What about the kcat [5] of the same molecule?
Answer: 1330 ± 100 s⁻¹

Question: And the kcat/Km [5]?
Answer: 4.49e+06 M⁻¹ s⁻¹

Question: What about the Km [6] of the same molecule?
Answer: 396 ± 51 µM

Question: And the kcat [6]?
Answer: 5640 ± 403 s⁻¹

Question: And the kcat/Km [6]?
Answer: 1.3e+07 M⁻¹ s⁻¹

Question: With `Cc1cc(=O)oc2cc(NC(=O)[C@H](C)NC(=O)[C@@H](N)CCCCN)ccc12` [Lys-Ala-MCA] (H-Lys-Ala-{AMC}) as the molecule, how does the “fluorescence of released aminomethylcoumarin, hydrolysis rate” value (PeDPP7 (MER278904)) read?
Answer: slowly hydrolyzed Leu-Gln-, Lys-Ala-, Leu-Arg-, and Ala-Asn-MCA
